Assays:
[1] = target: wild-type green fluorescent protein (GFP) derived from the jellyfish Aequorea victoria (Aequorea victoria) [GFP: P42212]; experiment: cell-based or functional assay
[2] = target: T1, catalytic subunit of the cAMP dependent protein kinase (Bos taurus, UniProt P00517); experiment: In vitro GFP phosphorylation assay; format: biochemical; conditions: 0.5 μg GFP, 10 casein units kinase, 0.2 mM ATP, 5 minutes at 37° C., excitation 395 nm (FIG. 3)
T1 construct: purchased Promega
Protocol: For in vitro phosphorylation of GFP, 0.5 μg wild-type GFP (purified as described above) in 40 mM Tris, pH 7.4, 20 mM MgOAc and 0.2 mM ATP (all from Sigma, St. Louis, Mo., USA) was incubated for 1-60 minutes at 37° C. with 0-20 casein units of the catalytic subunit of the cAMP dependent protein kinase (Promega, Madison, Wis. USA) and 0-200 μM cAMP dependent protein kinase inhibitor. Emission (excitation wavelength 395 nm or 470 nm) and excitation (emission wavelength 508 nm) spectra were acquired for all samples using the LS50B Luminescence Spectrometer and the FL data Manager software package (Perkin Elmer). The spectra were subsequently compared by using the Graph Builder software package (Perkin Elmer).
The control (w/o PKA) was incubated 5 minutes at 37° C. without the catalytic subunit of the cAMP dependent protein kinase. The excitation wavelength was 395 nm. RFI in the figure means relative fluorescence intensity.

catalytic subunit of the cAMP dependent protein kinase (Promega) (enzyme)
fluorescence intensity of wild-type GFP (emission spectra, excitation 395 nm) after in vitro phosphorylation [1]: 2 fold

wild-type GFP: wild-type green fluorescent protein derived from the jellyfish Aequorea victoria, SEQ ID NO: 32, purified from E. coli
increase of fluorescence intensity when incubated with the catalytic subunit of the cAMP dependent protein kinase [2]: approximately two-fold

— patent US6566083B1, “Method of detecting biologically active substances” (Novo Nordisk A/S, priority 1995, dated 2003)
